This is an account of results in patent US10428140B2, “Anti-EphA4 antibody” (EISAI R&D MANAGEMENT CO., LTD., priority 2015, dated 2019).

Holding throughout (format): binding
One test has as its target T1, human EphA1 (Homo sapiens, UniProt P21709).
T1 construct: a protein of the extracellular region of each human Eph receptor fused with the SEAP protein and the His tag; made in house; host or cells: Expi293F cells (culture supernatant)
T1 sequence (P21709 26-547 limits assumed): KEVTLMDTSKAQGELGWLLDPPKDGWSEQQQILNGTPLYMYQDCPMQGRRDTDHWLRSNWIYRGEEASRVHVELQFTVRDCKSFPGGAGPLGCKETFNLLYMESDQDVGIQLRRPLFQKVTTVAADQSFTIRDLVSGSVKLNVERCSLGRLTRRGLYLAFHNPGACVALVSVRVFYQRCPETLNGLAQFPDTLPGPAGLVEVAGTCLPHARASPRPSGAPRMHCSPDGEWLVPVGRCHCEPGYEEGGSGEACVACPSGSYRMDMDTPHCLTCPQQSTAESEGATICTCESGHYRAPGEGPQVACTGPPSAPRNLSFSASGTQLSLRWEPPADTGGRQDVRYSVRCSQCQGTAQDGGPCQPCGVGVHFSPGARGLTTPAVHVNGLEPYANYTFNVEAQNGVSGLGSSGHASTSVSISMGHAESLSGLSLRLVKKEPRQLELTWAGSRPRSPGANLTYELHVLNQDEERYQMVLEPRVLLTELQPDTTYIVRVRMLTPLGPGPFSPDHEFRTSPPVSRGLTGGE
Put plainly: Selectivity ELISA of humanized antibodies for human Eph receptor. The note with it: coated protein 1 nM. An outline of the steps:
(§1)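 Human Eph ECD-SEAP-His fusions, harvested after 5 days of Expi293F expression, are captured on anti-His-coated wells (1 nM final). Bound humanized antibody is detected with HRP anti-IgG and TMB at 450 nm.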
On the technique in general: ELISA stands for enzyme-linked immunosorbent assay.

For test [1], the target named is T2, human EphA4 (Homo sapiens, UniProt P54764).
T2 construct: made in house; not restated for the human SEAP-His protein
T2 sequence (P54764 20-547): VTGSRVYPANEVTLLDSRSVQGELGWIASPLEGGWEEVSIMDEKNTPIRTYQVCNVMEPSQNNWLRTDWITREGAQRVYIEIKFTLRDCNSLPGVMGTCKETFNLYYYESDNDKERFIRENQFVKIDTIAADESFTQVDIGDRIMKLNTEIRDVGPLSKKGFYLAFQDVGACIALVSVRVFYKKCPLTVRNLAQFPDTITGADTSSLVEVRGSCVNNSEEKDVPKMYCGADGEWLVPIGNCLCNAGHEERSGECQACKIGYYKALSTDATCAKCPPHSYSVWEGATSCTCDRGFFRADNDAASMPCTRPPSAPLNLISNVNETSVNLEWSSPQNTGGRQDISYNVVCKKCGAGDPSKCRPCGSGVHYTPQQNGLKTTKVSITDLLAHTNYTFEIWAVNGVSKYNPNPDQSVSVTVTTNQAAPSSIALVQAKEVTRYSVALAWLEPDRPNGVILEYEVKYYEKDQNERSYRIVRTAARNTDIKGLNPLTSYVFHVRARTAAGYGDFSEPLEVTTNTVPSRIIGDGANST
The description is as above. As to conditions: coated protein 1 nM; reference set to 100%. An outline of the steps:
as §1

Test [2] deals with T2, human EphA4. Briefly: Affinity of humanized antibodies by SPR (Biacore T200). The note with it: human EphA4 extracellular region-SEAP-His; for ka / kd: 1:1 binding model; for Kd: KD=kd/ka. An outline of the steps: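 Humanized antibodies captured on protein A chip (antibody A via immobilized rat anti-mouse IgG1) at about 30 to 60 RU in HBS-EP; human EphA4 extracellular region-SEAP-His injected single-cycle at 0.6 to 50 nM, 120 s association, 900 s dissociation. KD = kd/ka from 1:1 binding fits.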
On the technique in general: SPR reads the build-up and loss of mass on a sensor chip optically.

The term Kd denotes the free concentration of one partner at which half of the binding sites on the other are occupied at equilibrium, for simple one-to-one binding. The low end stands for a tighter complex, the high end for a looser complex.

B1: 76 (antibody, V domains shown)
VH: QVQLVQSGSELKKPGASVKVSCKASGYTFTDYSMHWVRQAPGQGLKWMGWINTETGEPTYAQGFTGRFVFSLDTSVSTAYLQISSLKAEDTAVYYCARIPLYYYGSRYWYFDVWGQGTTVTVSS
VL: DIQMTQSPSSLSASVGDRVTITCRASENIYRNLAWYQQKPGKAPKLLVYAATNLADGVPSRFSGSGSGTDYTLTISSLQPEDFATYYCQHFWGTPWTFGQGTKVEIK
modifications: synthetic humanized antibody heavy chain variable region sequence; synthetic humanized antibody light chain variable region sequence
For the molecule B1, in the test with human EphA1, the “hEphA1-SEAP-: absorbance at 450 nm, percentage with respect to hEphA4-SEAP-His as 100%” value was 5.1%. In addition, the “hEphA4-SEAP-: absorbance at 450 nm, percentage with respect to hEphA4-SEAP-His as 100%” value in the test with human EphA4 [1] was determined as 100%. Also, in the test with human EphA4 [2], the ka turned out to be 330000 M⁻¹ s⁻¹, the kd amounted to 0.00034 s⁻¹ and the dissociation constant (Kd) came out at 1 nM.

B2: 78 (antibody, V domains shown)
VH: QVQLVQSGSELKKPGASVKVSCKASGYTFTDYSMHWVRQAPGQGLKWMGWINTETGEPTYADDFKGRFVFSLDTSVSTAYLQISSLKAEDTAVYYCARIPLYYYGSRYWYFDVWGQGTTVTVSS
VL: DIQMTQSPSSLSASVGDRVTITCRASENIYRNLAWYQQKPGKAPKLLVYAATNLADGVPSRFSGSGSGTDYTLTISSLQPEDFATYYCQHFWGTPWTFGQGTKVEIK
modifications: synthetic humanized antibody heavy chain variable region sequence; synthetic humanized antibody light chain variable region sequence
As for B2, in the test with human EphA1, the “hEphA1-SEAP-: absorbance at 450 nm, percentage with respect to hEphA4-SEAP-His as 100%” value worked out at 6.6%. Also, the “hEphA4-SEAP-: absorbance at 450 nm, percentage with respect to hEphA4-SEAP-His as 100%” value with human EphA4 [1] stood at 100%. In addition, in the test with human EphA4 [2], the ka is 340000 M⁻¹ s⁻¹, the kd was 0.00039 s⁻¹ and binding was characterised by a dissociation constant (Kd) of 1.1 nM.

B3: 67 (antibody, V domains shown)
VH: QIQLVQSGSELKKPGASVKVSCKASGYTFTDYSMHWVRQAPGQGLKWMGWINTETGEPTYAQGFTGRFVFSLDTSVSTAYLQISSLKAEDTAVYYCARIPLYYYGSRYWYFDVWGQGTTVTVSS
VL: DIQMTQSPSSLSASVGDRVTITCRASENIYRNLAWYQQKPGKAPKLLVYAATNLADGVPSRFSGSGSGTDYTLTISSLQPEDFATYYCQHFWGTPWTFGQGTKVEIK
modifications: synthetic humanized antibody heavy chain variable region sequence; synthetic humanized antibody light chain variable region sequence
Regarding B3, the “hEphA1-SEAP-: absorbance at 450 nm, percentage with respect to hEphA4-SEAP-His as 100%” value with human EphA1 came out at 4.6%. In addition, the “hEphA4-SEAP-: absorbance at 450 nm, percentage with respect to hEphA4-SEAP-His as 100%” value with human EphA4 [1] was found to be 100%. In the test with human EphA4 [2], this molecule yielded a ka of 330000 M⁻¹ s⁻¹, a kd of 0.00035 s⁻¹ and a dissociation constant (Kd) of 1.1 nM.

B4: 77 (antibody, V domains shown)
VH: QVQLVQSGSELKKPGASVKVSCKASGYTFTDYSMHWVRQAPGQGLEWMGWINTETGEPTYADDFKGRFVFSLDTSVSTAYLQISSLKAEDTAVYYCARIPLYYYGSRYWYFDVWGQGTTVTVSS
VL: DIQMTQSPSSLSASVGDRVTITCRASENIYRNLAWYQQKPGKAPKLLVYAATNLADGVPSRFSGSGSGTDYTLTISSLQPEDFATYYCQHFWGTPWTFGQGTKVEIK
modifications: synthetic humanized antibody heavy chain variable region sequence; synthetic humanized antibody light chain variable region sequence
Take B4: the “hEphA1-SEAP-: absorbance at 450 nm, percentage with respect to hEphA4-SEAP-His as 100%” value with human EphA1 worked out at 4.5%. In addition, the “hEphA4-SEAP-: absorbance at 450 nm, percentage with respect to hEphA4-SEAP-His as 100%” value in the test with human EphA4 [1] was found to be 100%. In the test with human EphA4 [2], this molecule registered a ka of 410000 M⁻¹ s⁻¹, a kd of 0.00058 s⁻¹ and a Kd of 1.4 nM.
